Results reported in patent publication US20230340090A1 (published 2023).

T1: TDP-215 peptide GDVMDVFI (human)
T1 construct: same ELISA method as for the biotinylated 15-mers
T1 peptide: GDVMDVFI


Target: T1, TDP-215 peptide GDVMDVFI
Experiment: indirect ELISA on 8-mer peptide library
Method: Serum-free supernatants were harvested from stable hybridomas. The supernatants containing antibodies of interest were then screened by an indirect ELISA assay to determine epitopes. Epitopes were mapped using a library of TDP-43 15-mer peptides. Briefly, 96-well streptavidin-coated 96-well ELISA plates were incubated with 5 μg/mL of biotinylated 15-mer peptides spanning the amino acids (aa) 199-285 of human TDP-43 with 9 as offset and 6 as overlap. Plates were washed thoroughly with 0.05% Tween-20/PBS and then blocked with 1% bovine serum albumin (BSA) in 0.05% Tween-20/PBS for 1 hour at 37° C. The antibody contained in the hybridoma supernatant was then added at the indicated dilutions, and incubated for 2 hours at 37° C. after which the plates were washed as described previously. An AP-conjugated anti-mouse IgG secondary antibody (Jackson ImmunoResearch Laboratories, United Kingdom) was added at 1/1000 dilution in 0.05% Tween-20/PBS for 1 hour at 37° C. After the final wash, plates were incubated with pNPP (Sigma-Aldrich, Switzerland) an AP substrate solution, and read at 405 nm using an ELISA plate reader (Tecan).
Furthermore, antibodies were tested using an indirect ELISA on a peptide library of 8-mer peptides with 7 an overlap covering the sequence of human TDP-43 from aa 210 to aa 231, using the same ELISA method as describe previously in this section.

| binding result | Binder |
| --- | --- |
| binds | ACI-7062-415H10-Ab2 (antibody, IgG3, V domains shown, Mouse hybridoma antibody, IgG3, kappa; also called 415H10B7; clone 17) VH: DVQLVESGGGLVQPGGSRKLSCAASGFTFSSFGMHWVRQAPEKGLEWVAYISSGSSNIYYTDTVKGRFTISRDNPKNTLFLQMTSLRSEDTAIYYCARSGTTVPFDYWGQGTTLTVSS VL: not shown |
| binds | ACI-7062-404D6-Ab2 (antibody, IgG3, V domains shown, Mouse hybridoma antibody, IgG3, kappa; also called 404D6E11; clone 4) VH: QVTLKESGPGILQPSQTLSLTCSFSGFSLSTYGIGVGWIRQPSGKGLEWLAHIWWNDYKYYNTALKSRLTISKDTSNNRVFLKIASVDTADTATYYCARVYGNLYYFDYWGQGTTLTVSS VL: DVLMTQTPLSLPVSLGDQASISCRSSQSIVHGSGNTYLEWYLQKPGQSPKLLIYKVSNRFSGVPDRFSGSGSGTDFTLRISRVEAEDLGVYYCFQGSHVPTFGAGTKLELKR |
